The series has as its target TLR-4 extracellular domain (Homo sapiens, UniProt O00206 O00206:24-631). The series can be described thus: ELONA; 200 nM aptamer, 20 mM Tris pH 7.4, 1 mM MgCl2, 150 mM NaCl, 5 mM KCl, 37 C; among the most efficient binders. As to conditions: tags: C-terminal 6xHis, expressed in baculovirus; label: 5' digoxigenin (ELONA); predicted G4. The protocol: It was determined if the selected aptamers recognized the TLR-4 protein. To that end, 100 ng/well of 6×HIS-recombinant TLR-4 were added to a 96-well microtiter plate and were incubated at 4° C. for 16 h. Subsequently, individual aptamers labeled with digoxigenin in the 5′ end were diluted at a concentration of 5 μg/mL and then denatured for 10 min at 95° C. and cooled for 10 min on ice. Then, 20 pmol of each of the aptamers in 100 μl (200 nM) of aptamer buffer were added to each well and the plate was incubated for 1 h at 37° C. Finally, the plate was incubated with peroxidase-conjugated anti-digoxigenin antibodies and developed using ABTS. An anti-Li H2A DNA aptamer was used as a positive control (Martin et al., 2013, PLoS ONE 8: e78886).
By means of the same type of assay, aptamers TLRApt#2F and TLRApt#3R were identified.

Chain of TLR-4 extracellular domain (O00206 24-631, one chain of several): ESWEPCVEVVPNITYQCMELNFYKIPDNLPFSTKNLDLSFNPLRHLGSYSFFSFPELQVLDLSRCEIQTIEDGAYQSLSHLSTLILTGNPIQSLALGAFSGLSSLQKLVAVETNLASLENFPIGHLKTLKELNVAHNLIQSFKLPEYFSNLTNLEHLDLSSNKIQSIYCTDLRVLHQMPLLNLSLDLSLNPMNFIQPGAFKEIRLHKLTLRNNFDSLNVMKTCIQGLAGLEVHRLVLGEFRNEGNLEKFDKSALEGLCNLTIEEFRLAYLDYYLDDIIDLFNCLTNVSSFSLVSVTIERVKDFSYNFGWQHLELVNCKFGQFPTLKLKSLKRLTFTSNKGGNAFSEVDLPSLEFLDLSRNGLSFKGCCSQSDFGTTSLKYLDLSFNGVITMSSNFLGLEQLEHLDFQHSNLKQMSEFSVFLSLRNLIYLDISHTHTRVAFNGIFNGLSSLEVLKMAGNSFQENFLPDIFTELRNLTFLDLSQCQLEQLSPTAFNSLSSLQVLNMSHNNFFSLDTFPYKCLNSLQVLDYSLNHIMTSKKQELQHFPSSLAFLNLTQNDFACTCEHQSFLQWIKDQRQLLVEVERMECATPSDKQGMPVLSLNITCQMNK

B1: TLRApt#1R (ssDNA)
DNA: GTTGCTCGTATTTAGGGCCACCGGCACGGGACAAGGCGCGGGACGGCGTAGATCAGGTCGACACCAGTCTTCATCCGC
For B1, the binding result is “binds”.

B2: TLRApt#4F (ssDNA)
DNA: GCGGATGAAGACTGGTGTGCCAATAAACCATATCGCCGCGTTAGCATGTACTCGGTTGGCCCTAAATACGAGCAAC
As to B2, the binding result is on record as “binds”.

Source of the values: patent US20260218204, “APTAMERS SPECIFIC FOR TLR-4 AND USES THEREOF” (Merck Patent GmbH, published 2026).
